Consider one molecule from PMC3701661, “The Serine Protease Domain of MASP-3: Enzymatic Properties and Crystal Structure in Complex with Ecotin” (PLoS ONE, 2013).

Series [1] concerns the target T1, MASP-3 serine protease (SP) domain (human, UniProt P48740-2 450-728, three N-linked oligosaccharide chains comprising two N-acetylglucosamine and five mannose residues).
T1 sequence (looked up): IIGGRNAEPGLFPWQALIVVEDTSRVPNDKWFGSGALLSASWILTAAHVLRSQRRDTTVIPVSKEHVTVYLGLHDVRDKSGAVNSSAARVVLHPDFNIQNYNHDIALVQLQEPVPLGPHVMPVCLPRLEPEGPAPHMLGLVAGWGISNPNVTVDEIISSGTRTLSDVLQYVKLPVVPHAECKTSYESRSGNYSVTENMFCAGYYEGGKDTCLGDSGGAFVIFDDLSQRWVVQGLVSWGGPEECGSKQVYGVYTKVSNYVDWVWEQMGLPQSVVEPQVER
The series can be described thus: cell-based or functional assay.

Series [2] concerns the molecule itself. Kind of series: SEC; MASP-3 SP and ecotin preincubated 20 min at room temperature (equimolar, 225 pmol; also various molar ratios), TSK G3000 SW column in 145 mM NaCl, 50 mM triethanolamine-HCl, pH 7.4, 1 ml/min; peaks analysed by N-terminal sequencing and SDS-PAGE. For orientation: SEC sorts molecules by how far they enter the pores of the column.
Series [3] addresses T2, Coagulation factor XIa (human plasma) (human, UniProt P03951 19-387; P03951 388-625).
T2 construct: coagulation factor XIa heavy chain, human plasma; coagulation factor XIa light chain (catalytic domain), human plasma; also called fXIa; source: bought: Calbiochem (human plasma)
Kind of series: SPR; ecotin (1,000 RU) amine-coupled on a CM5 chip; proteases injected at 20 µl/min in 145 mM NaCl, 50 mM triethanolamine-HCl, pH 7.4, 0.005% surfactant P20; global fit to a 1:1 Langmuir model, at least five concentrations; apparent KD = kd/ka. The following applies: both partners purified. (In general: SPR reads the build-up and loss of mass on a sensor chip optically.)

For series [4], the target named is T3, MASP-2 CCP1/2-ap-SP fragment (human, UniProt O00187 298-686).
T3 construct: also called CCP1/2-ap-SP fragment of MASP-2; catalytic domain of MASP-2; source: baculovirus-infected insect cells, purified
The description is as above. The note with it: both partners purified.

Series [5] concerns the target T1, MASP-3 serine protease (SP) domain. Described as above. The note with it: both partners purified.

T2 sequence (P03951 19-387, chain 1 of 2): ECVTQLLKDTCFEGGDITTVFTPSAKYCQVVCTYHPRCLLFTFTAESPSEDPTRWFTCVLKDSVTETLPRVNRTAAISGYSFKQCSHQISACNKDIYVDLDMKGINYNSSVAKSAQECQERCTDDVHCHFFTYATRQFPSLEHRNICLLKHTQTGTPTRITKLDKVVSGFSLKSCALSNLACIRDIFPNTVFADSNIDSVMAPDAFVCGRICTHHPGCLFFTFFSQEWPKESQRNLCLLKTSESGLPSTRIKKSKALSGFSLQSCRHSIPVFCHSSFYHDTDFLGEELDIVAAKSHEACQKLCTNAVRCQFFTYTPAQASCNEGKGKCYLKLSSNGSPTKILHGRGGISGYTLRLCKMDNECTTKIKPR
T2 sequence (P03951 388-625, chain 2 of 2): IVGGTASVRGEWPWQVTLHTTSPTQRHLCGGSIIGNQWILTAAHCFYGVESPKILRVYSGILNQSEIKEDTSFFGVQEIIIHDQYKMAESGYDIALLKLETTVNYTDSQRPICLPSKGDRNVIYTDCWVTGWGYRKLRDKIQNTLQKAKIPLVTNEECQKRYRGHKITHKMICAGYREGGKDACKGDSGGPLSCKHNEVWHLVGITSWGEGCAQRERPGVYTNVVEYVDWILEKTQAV
T3 sequence (O00187 298-686): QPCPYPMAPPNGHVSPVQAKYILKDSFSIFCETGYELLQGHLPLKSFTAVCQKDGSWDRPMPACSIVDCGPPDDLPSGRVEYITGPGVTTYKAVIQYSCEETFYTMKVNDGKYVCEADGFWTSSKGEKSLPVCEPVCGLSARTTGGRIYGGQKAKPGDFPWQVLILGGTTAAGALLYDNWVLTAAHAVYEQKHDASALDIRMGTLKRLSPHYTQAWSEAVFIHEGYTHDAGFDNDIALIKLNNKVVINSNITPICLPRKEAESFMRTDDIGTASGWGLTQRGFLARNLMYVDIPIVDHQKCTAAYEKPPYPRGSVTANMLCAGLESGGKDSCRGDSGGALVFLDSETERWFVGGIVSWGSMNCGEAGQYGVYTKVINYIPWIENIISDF

B1: Ecotin (E. coli pan-serine protease inhibitor) (natural protein)
chain: not shown
notes: residues numbered 1 onwards in the structure (P1 residue Met84); Homodimer (molecular mass 32 kDa as printed); also called ecotin dimer; source: bought: Gentaur Molecular Products
With B1, in series [1], the “inhibition of FGR-AMC cleavage by the MASP-3 SP domain after incubation with ecotin at a 1:1 molar ratio” value was 82%. In addition, in series [2], the stoichiometry N (as a rule, the number of molecules, sites or subunits per partner or assembly) is 2. In addition, in series [3], the Kd was 1.38 nM; the koff (usually the rate constant with which the complex falls apart) turned out to be 0.000169 s⁻¹; the kon (in general, the second-order rate constant of association) turned out to be 123000 M⁻¹ s⁻¹. For the same molecule, in series [4], the Kd came out at 24.7 nM, the koff turned out to be 0.00228 s⁻¹ and the kon was found to be 104000 M⁻¹ s⁻¹. Further, in series [5], the Kd amounted to 601 nM, the koff was found to be 0.000806 s⁻¹ and the association rate constant (kon) worked out at 1340 M⁻¹ s⁻¹.
